The values below come from the Immune Epitope Database (IEDB).

Usually Kd stands for the equilibrium constant for the complex coming apart.

The target of assay [1] is HLA-B*46:01. The experiment in a line: IEDB peptide-MHC binding, purified MHC/direct/fluorescence; filed as Kd, often an IC50 or EC50 that approximates it; ≥ and ≤ were set here for values at or beyond the usual limits of such assays. To be noted: source organism: West Nile virus.
The target of the next assay is HLA-A*01:01. Description: IEDB peptide-MHC binding, purified MHC/competitive/radioactivity; filed as Kd, often an IC50 or EC50 that approximates it; ≥ and ≤ were set here for values at or beyond the usual limits of such assays.
For the next assay, the target named is HLA-A*30:01. The assay is described as above.
A further assay concerns the target HLA-A*30:02. Described as above. As to conditions: source organism: Dengue virus 3 Martinique/1243/1999.
The target in assay [2] is HLA-B*15:01. The assay is described as above.
In a further assay the target is HLA-B*57:01. The experiment in a line: IEDB peptide-MHC binding, purified MHC/direct/fluorescence; filed as Kd, often an IC50 or EC50 that approximates it; ≥ and ≤ were set here for values at or beyond the usual limits of such assays. To be noted: source organism: Yellow fever virus.
The next assay addresses HLA-B*53:01. Description: IEDB peptide-MHC binding, purified MHC/competitive/radioactivity; filed as Kd, often an IC50 or EC50 that approximates it; ≥ and ≤ were set here for values at or beyond the usual limits of such assays.
The target of another assay is HLA-A*23:01. The description is as above.
In a further assay the target is HLA-A*24:02. The description is as above.
A further assay deals with HLA-A*03:01. The assay is described as above.
The target of another assay is HLA-A*11:01. Described as above.
In another assay the target is HLA-A*26:01. Described as above. As to conditions: source organism: Dengue virus 3 Martinique/1243/1999.
Another assay has as its target HLA-B*40:01. Described as above.
Another assay has as its target HLA-A*29:02. The assay is described as above.
The target of assay [3] is HLA-B*15:01. Description: IEDB peptide-MHC binding, purified MHC/competitive/fluorescence; filed as Kd, often an IC50 or EC50 that approximates it; ≥ and ≤ were set here for values at or beyond the usual limits of such assays. To be noted: source organism: Bacillus cereus G9241.
The target in a further assay is HLA-B*44:02. Description: IEDB peptide-MHC binding, purified MHC/competitive/radioactivity; filed as Kd, often an IC50 or EC50 that approximates it; ≥ and ≤ were set here for values at or beyond the usual limits of such assays. To be noted: source organism: Dengue virus 2 Jamaica/1409/1983.
A further assay addresses HLA-B*44:03. The assay is described as above. As to conditions: source organism: Dengue virus 2 Jamaica/1409/1983.
A further assay concerns the target HLA-A*31:01. The assay is described as above. To be noted: source organism: Vaccinia virus WR.
The next assay concerns the target HLA-A*33:01. The description is as above. To be noted: source organism: Vaccinia virus WR.
Another assay deals with HLA-A*68:01. The description is as above. To be noted: source organism: Vaccinia virus WR.
The target of assay [4] is HLA-B*46:01. The experiment in a line: IEDB peptide-MHC binding, purified MHC/competitive/fluorescence; filed as Kd, often an IC50 or EC50 that approximates it; ≥ and ≤ were set here for values at or beyond the usual limits of such assays. To be noted: source organism: Francisella tularensis subsp. tularensis FSC198.
The mark [5] stands for this setting: source organism: Dengue virus 3 Martinique/1243/1999.
The mark [6] stands for this setting: source organism: Vaccinia virus WR.
The mark [7] stands for this setting: source organism: Mammarenavirus brazilense.
Where [8] appears, read: source organism: Dengue virus 2 Jamaica/1409/1983.
The mark [9] stands for this setting: source organism: Dengue virus 4 Philippines/H241/1956.

Where only a bound is given, the exact number is not on record here.

LMNDPGAPW: the Kd with HLA-B*46:01 [1] was found to be 8980 nM.

Turning to ISQHNHRPGY, the Kd with HLA-A*01:01 (setting [5]) was 15000 nM; with HLA-A*30:01 (setting [5]), 12.2 nM; with HLA-A*30:02, 99.8 nM.

On to GECIKTCVF, for which the Kd with HLA-B*15:01 [2] (setting [6]) is 115 nM.

As for KVRKIISKI, the Kd with HLA-A*30:01 (setting [6]) turned out to be 27.2 nM.

The sequence KIMKVVNRW yielded a Kd with HLA-B*57:01 of 131 nM.

In the case of KCLNIMLGK, the Kd with HLA-A*30:01 (setting [7]) was determined as 24.9 nM.

For EISSTFNRF, in the assay with HLA-B*15:01 [2] (setting [6]), the Kd is 131 nM.

For TPRMCTREEF, in the assay with HLA-B*53:01 (setting [8]), the Kd worked out at 1300 nM.

KNRNSKRSV: the Kd with HLA-A*30:01 (setting [6]) was found to be 32.7 nM.

Regarding LQGRGPLKLF, the Kd with HLA-B*15:01 [2] (setting [8]) amounted to 135 nM.

Take WMVHRQWFF: the Kd in the assay with HLA-A*23:01 (setting [5]) was determined as 125 nM; with HLA-A*24:02 (setting [5]), 835 nM.

With RTEAKSALK, the Kd with HLA-A*03:01 (setting [9]) amounted to 87.6 nM; with HLA-A*11:01 (setting [9]), 177 nM; with HLA-A*30:01 (setting [9]), 476 nM.

As for IWYMWLGARF, the Kd in the assay with HLA-A*23:01 (setting [8]) was found to be 8.27 nM; in the assay with HLA-A*24:02 (setting [8]) it was 6.14 nM.

VVRLLTKPWD: the Kd with HLA-A*30:01 (setting [8]) was found to be 3780 nM.

With AWLVHRQWF, the equilibrium dissociation constant (Kd) turned out to be 340 nM with HLA-A*23:01 (setting [8]) and 164 nM with HLA-A*24:02 (setting [8]).

As for HTSEHGGRAY, the Kd with HLA-A*01:01 (setting [5]) was 1030 nM; with HLA-A*26:01 it was 163 nM; with HLA-A*30:02, not below 44100 nM; in the assay with HLA-B*15:01 [2] (setting [5]), 146 nM.

Consider GEHKKLAEAI, for which the Kd with HLA-B*40:01 (setting [8]) is 53.7 nM.

Turning to LAPFNFLVF, the Kd with HLA-B*15:01 [2] (setting [6]) stood at 135 nM.

Turning to KYKQSNTNK, the Kd with HLA-A*30:01 (setting [6]) was 103 nM.

Take FPQSNSPIE: the Kd with HLA-B*53:01 (setting [9]) was 243 nM.

Turning to LTASLVMLL, in the assay with HLA-A*01:01 (source organism: Dengue virus 4 Dominica/814669/1981), the Kd stood at 1900 nM.

As for LQRKHGGML, in the assay with HLA-B*15:01 [2] (setting [5]), the Kd came out at 31.2 nM.

RLSNGMPTV: the Kd with HLA-A*30:01 (setting [6]) came out at 9270 nM.

For GIFPYSIPAT, the Kd with HLA-A*30:01 (source organism: Dengue virus 3 Sri Lanka/1266/2000) is not below 70400 nM.

In the case of EYGFTRRFKF, the values for the Kd with HLA-A*23:01 (setting [7]), with HLA-A*24:02 (setting [7]) and in the assay with HLA-A*29:02 (setting [7]) were 45.3 nM, 134 nM and 133 nM, respectively.

On to RVSVSAILL, for which the Kd in the assay with HLA-A*30:01 (setting [6]) turned out to be 14.7 nM.

In the case of GGSLVRCPLS, the Kd in the assay with HLA-A*30:01 (setting [9]) was found to be 2430 nM.

For EQKAYVPAM, the Kd in the assay with HLA-B*15:01 [2] (setting [6]) was 0.773 nM.

With STLRTLKPY, the Kd with HLA-B*15:01 [3] was determined as 148 nM.

In the case of LLLMRTTWAF, the results for the Kd in the assay with HLA-A*23:01 (setting [9]), with HLA-A*24:02 (setting [9]) and with HLA-B*15:01 [2] (setting [9]) were 694 nM, 292 nM and 1.24 nM, respectively.

LDPIPYDPKF: the Kd in the assay with HLA-A*24:02 (setting [8]) stood at 2420 nM.

LAIPATEFF: in the assay with HLA-B*15:01 [2] (setting [6]), the Kd was found to be 4.16 nM.

In the case of HEWMTTEDM, the Kd in the assay with HLA-B*40:01 (setting [8]) came to 381 nM; in the assay with HLA-B*44:02, 1960 nM; with HLA-B*44:03, 1530 nM.

Regarding TVFIRFPHY, the results for the Kd with HLA-A*30:01 (setting [6]) and in the assay with HLA-B*15:01 [2] (setting [6]) were 1270 nM and 123 nM, respectively.

For FIESSICLDY, the Kd is 2920 nM in the assay with HLA-A*03:01 (setting [6]); 3930 nM with HLA-A*11:01 (setting [6]); not below 40500 nM with HLA-A*29:02 (setting [6]); 10100 nM in the assay with HLA-A*31:01; 5650 nM with HLA-A*33:01; 964 nM in the assay with HLA-A*68:01.

As to WENNIKLTV, the Kd with HLA-B*40:01 (setting [5]) was found to be 120 nM.

For the sequence NVRYVFLYK, in the assay with HLA-A*30:01 (setting [6]), the Kd worked out at 9.89 nM.

Sequence YIGGTTQAF gave a Kd in the assay with HLA-B*46:01 [4] of 4420 nM.

As to KTKRYLPAI, in the assay with HLA-A*30:01 (setting [8]), the Kd came out at 100 nM.
